Results as given in patent publication US20150322160A1 (Bayer, published 2015).

B1: MF-T-SPDP-DM4 (antibody)
VH: QVELVQSGAEVKKPGESLKISCKGSGYSFTSYWIGWVRQAPGKGLEWMGIIDPGDSRTRYSPSFQGQVTISADKSISTAYLQWSSLKASDTAMYYCARGQLYGGTYMDGWGQGTLVTVSS
VL: DIALTQPASVSGSPGQSITISCTGTSSDIGGYNSVSWYQQHPGKAPKLMIYGVNNRPSGVSNRFSGSKSGNTASLTISGLQAEDEADYYCSSYDIESATPVFGGGTKLTVLGQDIVLTQPPSVSGAPGQRVTISCSGSSSNIGSNYVSWYQQLPGTAPKLLIYNDNQRPSGVPDRFSGSKSGTSASLAITGLQSEDEADYYCSTYDRRTFSVFGGGTKLTVLGQ
modifications: DM4 maytansinoid conjugated via SPDB (printed SPDP in Table 2) linker; DM4/Ab 3.6; attachment residues not stated
B2: MF-J-SPDP-DM4 (antibody, V domains shown)
VH: QVELVQSGAEVKKPGESLKISCKGSGYSFTNYWIGWVRQMPGKGLEWMGVIMPSDSYTRYSPSFQGQVTISADKSISTAYLQWSSLKASDTAMYYCARYGHGMYGGALDVWGQGTLVTVSS
VL: DIVLTQSPATLSLSPGERATLSCRASQSVRSSRLAWYQQKPGQAPRLLIYGASKRATGVPARFSGSGSGTDFTLTISSLEPEDFATYYCQQYYDFPPTFGQGTKVEIKR
modifications: DM4 maytansinoid conjugated via SPDB (printed SPDP in Table 2) linker; DM4/Ab 2.8; attachment residues not stated
B3: MOR06640-SPDP-DM4 (antibody, V domains shown)
VH: QVQLVQSGAEVKKPGESLKISCKGSGYSFTNYWIGWVRQMPGKGLEWMGVIMPSDSYTRYSPSFQGQVTISADKSISTAYLQWSSLKASDTAMYYCARYGHGMYGGALDVWGQGTLVTVSS
VL: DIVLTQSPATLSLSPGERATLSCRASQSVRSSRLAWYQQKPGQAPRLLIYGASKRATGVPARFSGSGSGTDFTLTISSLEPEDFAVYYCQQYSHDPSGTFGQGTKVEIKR
modifications: DM4 maytansinoid conjugated via SPDB (printed SPDP in Table 2) linker; DM4/Ab 3.6; attachment residues not stated
B4: MF-226-SPDP-DM4 (antibody, V domains shown)
VH: QVELVQSGAEVKKPGASVKVSCKASGYTFTGNYINWVRQAPGQGLEWMGIINPHGGDTKYAQKFQGRVTMTRDTSISTAYMELSSLRSEDTAVYYCARWHHGTWIFDYWGQGTLVTVSS
VL: DIVLTQPPSVSGAPGQRVTISCSGSSSNIGSNYVSWYQQLPGTAPKLLIYNDNQRPSGVPDRFSGSKSGTSASLAITGLQSEDEADYYCSTYDRRTFSVFGGGTKLTVLG
modifications: DM4 maytansinoid conjugated via SPDB (printed SPDP in Table 2) linker; DM4/Ab 3.3; attachment residues not stated
B5: MF-T Fab (Fab, V domains shown)
VH: QVELVQSGAEVKKPGESLKISCKGSGYSFTSYWIGWVRQAPGKGLEWMGIIDPGDSRTRYSPSFQGQVTISADKSISTAYLQWSSLKASDTAMYYCARGQLYGGTYMDGWGQGTLVTVSS
VL: DIALTQPASVSGSPGQSITISCTGTSSDIGGYNSVSWYQQHPGKAPKLMIYGVNNRPSGVSNRFSGSKSGNTASLTISGLQAEDEADYYCSSYDIESATPVFGGGTKLTVLG
notes: Tested as Fab ('KD of Fab'); the Fab constant domains are not
B6: MF-J Fab (Fab, V domains shown)
VH: QVELVQSGAEVKKPGESLKISCKGSGYSFTNYWIGWVRQMPGKGLEWMGVIMPSDSYTRYSPSFQGQVTISADKSISTAYLQWSSLKASDTAMYYCARYGHGMYGGALDVWGQGTLVTVSS
VL: DIVLTQSPATLSLSPGERATLSCRASQSVRSSRLAWYQQKPGQAPRLLIYGASKRATGVPARFSGSGSGTDFTLTISSLEPEDFATYYCQQYYDFPPTFGQGTKVEIKR
notes: as for B5
B7: MOR 06640 Fab (Fab, V domains shown)
VH: QVQLVQSGAEVKKPGESLKISCKGSGYSFTNYWIGWVRQMPGKGLEWMGVIMPSDSYTRYSPSFQGQVTISADKSISTAYLQWSSLKASDTAMYYCARYGHGMYGGALDVWGQGTLVTVSS
VL: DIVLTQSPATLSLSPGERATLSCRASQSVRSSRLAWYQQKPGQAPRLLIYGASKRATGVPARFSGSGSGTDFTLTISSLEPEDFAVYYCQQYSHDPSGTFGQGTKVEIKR
notes: Tested as Fab ('KD of Fab'); the Fab constant domains are not; also called MOR6640
B8: MF-226 Fab (Fab, V domains shown)
VH: QVELVQSGAEVKKPGASVKVSCKASGYTFTGNYINWVRQAPGQGLEWMGIINPHGGDTKYAQKFQGRVTMTRDTSISTAYMELSSLRSEDTAVYYCARWHHGTWIFDYWGQGTLVTVSS
VL: DIVLTQPPSVSGAPGQRVTISCSGSSSNIGSNYVSWYQQLPGTAPKLLIYNDNQRPSGVPDRFSGSKSGTSASLAITGLQSEDEADYYCSTYDRRTFSVFGGGTKLTVLG
notes: as for B5

What follows are binders tested against mesothelin expressed on cells (transfected MiaPaCa-2, HT29 C2, CHO A9; endogenous HelaMatu, OVCAR-3) (Homo sapiens (Human), UniProt Q13421 296-598) (assay: cell-based or functional assay).
Chain of mesothelin expressed on cells (transfected MiaPaCa-2, HT29 C2, CHO A9; endogenous HelaMatu, OVCAR-3) (Q13421 other isoform, or with tags, fused parts or gaps limits assumed): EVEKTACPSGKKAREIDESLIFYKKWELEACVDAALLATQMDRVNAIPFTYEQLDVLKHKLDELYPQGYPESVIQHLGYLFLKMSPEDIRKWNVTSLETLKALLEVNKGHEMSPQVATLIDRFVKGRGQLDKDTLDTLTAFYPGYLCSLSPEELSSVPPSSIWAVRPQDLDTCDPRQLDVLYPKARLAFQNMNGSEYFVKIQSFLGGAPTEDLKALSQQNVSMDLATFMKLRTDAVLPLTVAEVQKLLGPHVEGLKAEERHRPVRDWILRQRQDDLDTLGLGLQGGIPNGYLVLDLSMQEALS

In order of falling “IC50 (nM), cell viability (WST-1), CHO A9* (Mesothelin+)” value:
1. B4  1.3 nM
2. B3  1.2 nM
3. B1  1 nM
4. B2  0.35 nM

In order of falling “IC50 (nM), cell viability (WST-1), HT29 C2 (Mesothelin+)” value:
1. B4  8 nM
2. B1  1.5 nM
3. B2  0.3 nM
4. B3  0.21 nM

In order of falling “IC50 (nM), cell viability (WST-1), HelaMatu” value:
1. B4  0.9 nM
2. B3  0.6 nM
3. B1  0.45 nM
4. B2  0.2 nM

In order of falling “IC50 (nM), cell viability (WST-1), MiaPaCa-2 (Mesothelin+)” value:
1. B4  21 nM
2. B2  1.4 nM
3. B1  1.3 nM
4. B3  0.36 nM

In order of rising “IC50 (nM), cell viability (WST-1), OVCAR-3” value:
1. B2  0.9 nM
2. B3  1.07 nM
3. B1  2.8 nM
4. B4  14.8 nM

These binders were tested against T1, mesothelin (40 kDa, C-terminal domain of the mesothelin precursor polypeptide) (Homo sapiens (Human), UniProt Q13421 296-598) (assay: KD of Fab; method not stated).
T1 construct: Antigen of the Fab KD values
T1 sequence (Q13421 other isoform, or with tags, fused parts or gaps limits assumed): as above

In order of falling Kd:
1. B8  58.3 nM
2. B5  16.3 nM
3. B6  9.2 nM
4. B7  0.19 nM
